From the supplement of paper PMC10567573

B1: ALDH8A1 (parent)
chain: WSSRSPQERSRVLNQVADLLEQSL

Variants of: B1
Experiment: protein stability index of a GFP-peptide fusion (GPS, HEK-293T) (PSI 1-6); higher = more stable
Settings: c terminus: a fixed tail appended
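Further: lentivirally expressed fusions sorted by FACS into six bins by GFP to DsRed ratio, PSI derived from sequencing read proportions per bin multiplied by bin number.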

Compared with RSSRSPQERSRVLNQVADLLEQSL [W1R], SSSRSPQERSRVLNQVADLLEQSL [W1S] is higher in protein stability index: 3.52 for the first, 3.69 for the second.

Compared with TSSRSPQERSRVLNQVADLLEQSL [W1T], VSSRSPQERSRVLNQVADLLEQSL [W1V] is lower in protein stability index: 3.39 for the first, 3.11 for the second.

Going from YSSRSPQERSRVLNQVADLLEQSL [W1Y] to WASRSPQERSRVLNQVADLLEQSL [S2A], the protein stability index falls from 2.68 to 1.99.

First: WCSRSPQERSRVLNQVADLLEQSL [S2C]
Second: WDSRSPQERSRVLNQVADLLEQSL [S2D]
The protein stability index of the first is lower: 1.87 for the first, 2.8 for the second.

Compared with WESRSPQERSRVLNQVADLLEQSL [S2E], WFSRSPQERSRVLNQVADLLEQSL [S2F] is lower in protein stability index: 2.9 for the first, 2.81 for the second.

First: WGSRSPQERSRVLNQVADLLEQSL [S2G]
Second: WHSRSPQERSRVLNQVADLLEQSL [S2H]
The protein stability index of the first is lower: 2.5 for the first, 2.56 for the second.

First: WISRSPQERSRVLNQVADLLEQSL [S2I]
Second: WKSRSPQERSRVLNQVADLLEQSL [S2K]
The protein stability index of the first is lower: 1.78 for the first, 2.48 for the second.

Compared with WLSRSPQERSRVLNQVADLLEQSL [S2L], WMSRSPQERSRVLNQVADLLEQSL [S2M] is higher in protein stability index: 1.8 for the first, 2.51 for the second.

Going from WNSRSPQERSRVLNQVADLLEQSL [S2N] to WPSRSPQERSRVLNQVADLLEQSL [S2P], the protein stability index rises from 2.78 to 2.92.

Compared with WQSRSPQERSRVLNQVADLLEQSL [S2Q], WRSRSPQERSRVLNQVADLLEQSL [S2R] is higher in protein stability index: 2.17 for the first, 2.81 for the second.

Compared with WTSRSPQERSRVLNQVADLLEQSL [S2T], WVSRSPQERSRVLNQVADLLEQSL [S2V] is higher in protein stability index: 2.46 for the first, 2.76 for the second.

First: WWSRSPQERSRVLNQVADLLEQSL [S2W]
Second: WYSRSPQERSRVLNQVADLLEQSL [S2Y]
The protein stability index of the first is lower: 1.92 for the first, 2.65 for the second.

First: WSARSPQERSRVLNQVADLLEQSL [S3A]
Second: WSCRSPQERSRVLNQVADLLEQSL [S3C]
The protein stability index of the first is lower: 1.98 for the first, 2.26 for the second.

Going from WSDRSPQERSRVLNQVADLLEQSL [S3D] to WSERSPQERSRVLNQVADLLEQSL [S3E], the protein stability index rises from 2.77 to 3.5.

Compared with WSFRSPQERSRVLNQVADLLEQSL [S3F], WSGRSPQERSRVLNQVADLLEQSL [S3G] is lower in protein stability index: 1.88 for the first, 1.82 for the second.

First: WSHRSPQERSRVLNQVADLLEQSL [S3H]
Second: WSIRSPQERSRVLNQVADLLEQSL [S3I]
The protein stability index of the first is higher: 2.52 for the first, 2.2 for the second.

Compared with WSKRSPQERSRVLNQVADLLEQSL [S3K], WSLRSPQERSRVLNQVADLLEQSL [S3L] is lower in protein stability index: 2.53 for the first, 1.98 for the second.

Compared with WSMRSPQERSRVLNQVADLLEQSL [S3M], WSNRSPQERSRVLNQVADLLEQSL [S3N] is higher in protein stability index: 2.27 for the first, 2.35 for the second.

Compared with WSPRSPQERSRVLNQVADLLEQSL [S3P], WSQRSPQERSRVLNQVADLLEQSL [S3Q] is lower in protein stability index: 2.54 for the first, 2.52 for the second.

First: WSRRSPQERSRVLNQVADLLEQSL [S3R]
Second: WSTRSPQERSRVLNQVADLLEQSL [S3T]
The protein stability index of the first is lower: 2.28 for the first, 2.64 for the second.

Going from WSVRSPQERSRVLNQVADLLEQSL [S3V] to WSWRSPQERSRVLNQVADLLEQSL [S3W], the protein stability index falls from 2.78 to 1.8.

First: WSYRSPQERSRVLNQVADLLEQSL [S3Y]
Second: WSSASPQERSRVLNQVADLLEQSL [R4A]
The protein stability index of the first is higher: 2.25 for the first, 2.18 for the second.

Going from WSSCSPQERSRVLNQVADLLEQSL [R4C] to WSSDSPQERSRVLNQVADLLEQSL [R4D], the protein stability index rises from 1.68 to 2.79.

First: WSSESPQERSRVLNQVADLLEQSL [R4E]
Second: WSSFSPQERSRVLNQVADLLEQSL [R4F]
The protein stability index of the first is higher: 2.97 for the first, 1.82 for the second.

Compared with WSSGSPQERSRVLNQVADLLEQSL [R4G], WSSHSPQERSRVLNQVADLLEQSL [R4H] is higher in protein stability index: 2.52 for the first, 2.71 for the second.

Going from WSSISPQERSRVLNQVADLLEQSL [R4I] to WSSKSPQERSRVLNQVADLLEQSL [R4K], the protein stability index falls from 2.64 to 2.49.

Going from WSSLSPQERSRVLNQVADLLEQSL [R4L] to WSSMSPQERSRVLNQVADLLEQSL [R4M], the protein stability index rises from 2.03 to 2.22.

Going from WSSNSPQERSRVLNQVADLLEQSL [R4N] to WSSPSPQERSRVLNQVADLLEQSL [R4P], the protein stability index rises from 2.61 to 2.64.

First: WSSQSPQERSRVLNQVADLLEQSL [R4Q]
Second: WSSSSPQERSRVLNQVADLLEQSL [R4S]
The protein stability index of the first is higher: 3.04 for the first, 2.44 for the second.

First: WSSTSPQERSRVLNQVADLLEQSL [R4T]
Second: WSSVSPQERSRVLNQVADLLEQSL [R4V]
The protein stability index of the first is higher: 2.62 for the first, 2.02 for the second.

First: WSSWSPQERSRVLNQVADLLEQSL [R4W]
Second: WSSYSPQERSRVLNQVADLLEQSL [R4Y]
The protein stability index of the first is higher: 2.68 for the first, 2.09 for the second.

First: WSSRAPQERSRVLNQVADLLEQSL [S5A]
Second: WSSRCPQERSRVLNQVADLLEQSL [S5C]
The protein stability index of the first is higher: 2.62 for the first, 2.56 for the second.

Going from WSSRDPQERSRVLNQVADLLEQSL [S5D] to WSSREPQERSRVLNQVADLLEQSL [S5E], the protein stability index rises from 2.85 to 2.88.

Going from WSSRFPQERSRVLNQVADLLEQSL [S5F] to WSSRGPQERSRVLNQVADLLEQSL [S5G], the protein stability index rises from 1.99 to 2.05.

Going from WSSRHPQERSRVLNQVADLLEQSL [S5H] to WSSRIPQERSRVLNQVADLLEQSL [S5I], the protein stability index rises from 2.14 to 2.4.

First: WSSRKPQERSRVLNQVADLLEQSL [S5K]
Second: WSSRLPQERSRVLNQVADLLEQSL [S5L]
The protein stability index of the first is lower: 2.52 for the first, 2.74 for the second.

Compared with WSSRMPQERSRVLNQVADLLEQSL [S5M], WSSRNPQERSRVLNQVADLLEQSL [S5N] is lower in protein stability index: 2.54 for the first, 2.43 for the second.

Compared with WSSRPPQERSRVLNQVADLLEQSL [S5P], WSSRQPQERSRVLNQVADLLEQSL [S5Q] is higher in protein stability index: 2.57 for the first, 3.01 for the second.

Compared with WSSRRPQERSRVLNQVADLLEQSL [S5R], WSSRTPQERSRVLNQVADLLEQSL [S5T] is lower in protein stability index: 2.87 for the first, 2.57 for the second.

Compared with WSSRVPQERSRVLNQVADLLEQSL [S5V], WSSRWPQERSRVLNQVADLLEQSL [S5W] is lower in protein stability index: 2.81 for the first, 1.59 for the second.

First: WSSRYPQERSRVLNQVADLLEQSL [S5Y]
Second: WSSRSAQERSRVLNQVADLLEQSL [P6A]
The protein stability index of the first is lower: 1.6 for the first, 2.13 for the second.

First: WSSRSCQERSRVLNQVADLLEQSL [P6C]
Second: WSSRSDQERSRVLNQVADLLEQSL [P6D]
The protein stability index of the first is lower: 2.19 for the first, 3.19 for the second.

Going from WSSRSEQERSRVLNQVADLLEQSL [P6E] to WSSRSFQERSRVLNQVADLLEQSL [P6F], the protein stability index falls from 3.07 to 1.84.

Compared with WSSRSGQERSRVLNQVADLLEQSL [P6G], WSSRSHQERSRVLNQVADLLEQSL [P6H] is lower in protein stability index: 2.85 for the first, 2.73 for the second.

First: WSSRSIQERSRVLNQVADLLEQSL [P6I]
Second: WSSRSKQERSRVLNQVADLLEQSL [P6K]
The protein stability index of the first is higher: 2.44 for the first, 2.42 for the second.

First: WSSRSLQERSRVLNQVADLLEQSL [P6L]
Second: WSSRSMQERSRVLNQVADLLEQSL [P6M]
The protein stability index of the first is higher: 2.17 for the first, 1.99 for the second.

Compared with WSSRSNQERSRVLNQVADLLEQSL [P6N], WSSRSQQERSRVLNQVADLLEQSL [P6Q] is higher in protein stability index: 2.6 for the first, 2.85 for the second.
